What is called Kd is the equilibrium constant for the complex coming apart. In general, koff refers to the rate constant with which the complex falls apart. For orientation: kon means a measure of how fast the partners come together.

Test [1] concerns the target recombinant Der p 1 (mature, enzymatically active cysteine protease) (house dust mite) (UniProt P08176). Nature of the test: enzyme inhibition kinetics; time-dependent inhibition of Der p 1 (5 nM) by propeptide (30–300 nM) at pH 7, fluorogenic substrate Boc-Gln-Ala-Arg-AMC; pre-steady-state kobs against propeptide concentration by linear regression gives KD Global, kon and koff; simple 1/1 stoichiometry assumed.

For test [2] the target is unchanged. Nature of the test: enzyme inhibition kinetics; steady-state velocities of Der p 1 at each propeptide concentration, pH 7, substrate Boc-Gln-Ala-Arg-AMC at 160 µM; KD calculated by Equation (4) because initial and steady-state velocities differed little.
The target is the same in test [3].

In the case of “Der p 1 propeptide mutant K17pA, full-length (1-80) (domain or fragment)”, in test [1], the Kd was 15 nM, the koff was determined as 0.007 s⁻¹ and the kon is 460000 M⁻¹ s⁻¹.
The like results for “Der p 1 propeptide mutant Y19pF, full-length (1-80) (domain or fragment)” were, in that order, 6 nM, 0.007 s⁻¹ and 1.2e+06 M⁻¹ s⁻¹.
As for “Der p 1 propeptide double mutant D51pA/E56pA, full-length (1-80) (domain or fragment)”, in test [2], the Kd was 130 nM.
For the molecule “Der p 1 propeptide, wild type, full-length (1-80) (domain or fragment)”, in test [1], the Kd worked out at 7 nM, the koff was 0.0078 s⁻¹ and the kon was determined as 1.1e+06 M⁻¹ s⁻¹.
The like results for “Der p 1 propeptide mutant D51pA, full-length (1-80) (domain or fragment)” were, in that order, 37 nM, 0.017 s⁻¹ and 440000 M⁻¹ s⁻¹.
Taken in the same sequence, the figures for “Der p 1 propeptide mutant E56pA, full-length (1-80) (domain or fragment)” were 5 nM, 0.007 s⁻¹ and 1.5e+06 M⁻¹ s⁻¹.

B1: tetrapeptide KYVQ (first half of the cleavage site KYVQ40p–S41pNGG) (peptide)
peptide: KYVQ
B1: the reduction of the initial Der p 1 activity (Boc-Gln-Ala-Arg-AMC hydrolysis) by tetrapeptide (10 mM) at pH 4 in test [3] was found to be 45%.

B2: tetrapeptide FDLN (first half of the cleavage site FDLN78p–A79pETN) (peptide)
peptide: FDLN
As to B2, in test [3], the reduction of the initial Der p 1 activity (Boc-Gln-Ala-Arg-AMC hydrolysis) by tetrapeptide (10 mM) at pH 4 is 75%.

B3: tetrapeptide LNAE (first half of the cleavage site LNAE80p–T1NAC) (peptide)
peptide: LNAE
B3: the reduction of the initial Der p 1 activity (Boc-Gln-Ala-Arg-AMC hydrolysis) by tetrapeptide (10 mM) at pH 4 in test [3] was 80%.

B4: tetrapeptide NKSY (first half of the cleavage site NKSY19p–A20pTFE) (peptide)
peptide: NKSY
As for B4, the reduction of the initial Der p 1 activity (Boc-Gln-Ala-Arg-AMC hydrolysis) by tetrapeptide (10 mM) at pH 4 in test [3] came out at 30%.

The record behind these values is article PMC5454996.
